According to the supplement of paper PMC10266784:

B1: library; numbered along this chain (parent)
chain: MAAAAAAAAEQQSSNGPVKKSMREKAVERRSVNKEHNSNFKAGYIPIDEDRLHKTGLRGRKGNLAICVIILLFILAVINLIITLVIWAVIRIGPNGCDSMEFHESGLLRFKQVSDMGVIHPLYKSTVGGRRNENLVITGNNQPIVFQQGTTKLSVENNKTSITSDIGMQFFDPRTQNILFSTDYETHEFHLPSGVKSLNVQKASTERITSNATSDLNIKVDGRAIVRGNEGVFIMGKTIEFHMGGNMELKAENSIILNGSVMVSTTRLPSSSSGDQLGSGDWVRYKLCMCADGTLFKVQVTSQNMGCQISDNPCGNTH

Variants of: B1
Test: SGCB cell-surface expression functional score (HA stain, bin4 vs bin1, normalised to synonymous) (log10 ratio); higher = more cell-surface SGCB (functional)
Method in brief: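 HEK293 cells stably expressing alpha-, gamma- and delta-sarcoglycan received codon-saturation libraries of HA-tagged, YFP-fused human beta-sarcoglycan by lentiviral transduction at MOI <0.1, performed in duplicate. Cells positive for YFP were sorted after 72 hours and cultured for 5–7 days, then stained on ice with Alexa Fluor 647 anti-HA and fixed. Fixed cells were sorted into four 5% intensity bins and amplicon-sequenced, and the log ratio of highest-bin to lowest-bin variant frequency, as a median over codons and transductions, gives the functional score. Per section, synonymous variants were scaled to mean 0, SD 0.5.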

Variant | SGCB cell-surface expression functional score (log10)
MAAAAAAAAEQQSSNGPVKKSMREKAVERRSVNKEHNSNFKAGYIPIDEDRLHKTGLRGRKGNLAICVIILLFILAVINLIITLVIWAVIRIGPNGCDSMEFHESGLQRFKQVSDMGVIHPLYKSTVGGRRNENLVITGNNQPIVFQQGTTKLSVENNKTSITSDIGMQFFDPRTQNILFSTDYETHEFHLPSGVKSLNVQKASTERITSNATSDLNIKVDGRAIVRGNEGVFIMGKTIEFHMGGNMELKAENSIILNGSVMVSTTRLPSSSSGDQLGSGDWVRYKLCMCADGTLFKVQVTSQNMGCQISDNPCGNTH [L108Q] | -1.27
MAAAAAAAAEQQSSNGPVKKSMREKAVERRSVNKEHNSNFKAGYIPIDEDRLHKTGLRGRKGNLAICVIILLFILAVINLIITLVIWAVIRIGPNGCDSMEFHESGLWRFKQVSDMGVIHPLYKSTVGGRRNENLVITGNNQPIVFQQGTTKLSVENNKTSITSDIGMQFFDPRTQNILFSTDYETHEFHLPSGVKSLNVQKASTERITSNATSDLNIKVDGRAIVRGNEGVFIMGKTIEFHMGGNMELKAENSIILNGSVMVSTTRLPSSSSGDQLGSGDWVRYKLCMCADGTLFKVQVTSQNMGCQISDNPCGNTH [L108W] | -0.215
MAAAAAAAAEQQSSNGPVKKSMREKAVERRSVNKEHNSNFKAGYIPIDEDRLHKTGLRGRKGNLAICVIILLFILAVINLIITLVIWAVIRIGPNGCDSMEFHESGLLFFKQVSDMGVIHPLYKSTVGGRRNENLVITGNNQPIVFQQGTTKLSVENNKTSITSDIGMQFFDPRTQNILFSTDYETHEFHLPSGVKSLNVQKASTERITSNATSDLNIKVDGRAIVRGNEGVFIMGKTIEFHMGGNMELKAENSIILNGSVMVSTTRLPSSSSGDQLGSGDWVRYKLCMCADGTLFKVQVTSQNMGCQISDNPCGNTH [R109F] | -0.2
MAAAAAAAAEQQSSNGPVKKSMREKAVERRSVNKEHNSNFKAGYIPIDEDRLHKTGLRGRKGNLAICVIILLFILAVINLIITLVIWAVIRIGPNGCDSMEFHESGLLEFKQVSDMGVIHPLYKSTVGGRRNENLVITGNNQPIVFQQGTTKLSVENNKTSITSDIGMQFFDPRTQNILFSTDYETHEFHLPSGVKSLNVQKASTERITSNATSDLNIKVDGRAIVRGNEGVFIMGKTIEFHMGGNMELKAENSIILNGSVMVSTTRLPSSSSGDQLGSGDWVRYKLCMCADGTLFKVQVTSQNMGCQISDNPCGNTH [R109E] | -0.02
MAAAAAAAAEQQSSNGPVKKSMREKAVERRSVNKEHNSNFKAGYIPIDEDRLHKTGLRGRKGNLAICVIILLFILAVINLIITLVIWAVIRIGPNGCDSMEFHESGLLCFKQVSDMGVIHPLYKSTVGGRRNENLVITGNNQPIVFQQGTTKLSVENNKTSITSDIGMQFFDPRTQNILFSTDYETHEFHLPSGVKSLNVQKASTERITSNATSDLNIKVDGRAIVRGNEGVFIMGKTIEFHMGGNMELKAENSIILNGSVMVSTTRLPSSSSGDQLGSGDWVRYKLCMCADGTLFKVQVTSQNMGCQISDNPCGNTH [R109C] | -0.5
MAAAAAAAAEQQSSNGPVKKSMREKAVERRSVNKEHNSNFKAGYIPIDEDRLHKTGLRGRKGNLAICVIILLFILAVINLIITLVIWAVIRIGPNGCDSMEFHESGLLIFKQVSDMGVIHPLYKSTVGGRRNENLVITGNNQPIVFQQGTTKLSVENNKTSITSDIGMQFFDPRTQNILFSTDYETHEFHLPSGVKSLNVQKASTERITSNATSDLNIKVDGRAIVRGNEGVFIMGKTIEFHMGGNMELKAENSIILNGSVMVSTTRLPSSSSGDQLGSGDWVRYKLCMCADGTLFKVQVTSQNMGCQISDNPCGNTH [R109I] | -0.04
MAAAAAAAAEQQSSNGPVKKSMREKAVERRSVNKEHNSNFKAGYIPIDEDRLHKTGLRGRKGNLAICVIILLFILAVINLIITLVIWAVIRIGPNGCDSMEFHESGLLAFKQVSDMGVIHPLYKSTVGGRRNENLVITGNNQPIVFQQGTTKLSVENNKTSITSDIGMQFFDPRTQNILFSTDYETHEFHLPSGVKSLNVQKASTERITSNATSDLNIKVDGRAIVRGNEGVFIMGKTIEFHMGGNMELKAENSIILNGSVMVSTTRLPSSSSGDQLGSGDWVRYKLCMCADGTLFKVQVTSQNMGCQISDNPCGNTH [R109A] | -0.33
MAAAAAAAAEQQSSNGPVKKSMREKAVERRSVNKEHNSNFKAGYIPIDEDRLHKTGLRGRKGNLAICVIILLFILAVINLIITLVIWAVIRIGPNGCDSMEFHESGLLGFKQVSDMGVIHPLYKSTVGGRRNENLVITGNNQPIVFQQGTTKLSVENNKTSITSDIGMQFFDPRTQNILFSTDYETHEFHLPSGVKSLNVQKASTERITSNATSDLNIKVDGRAIVRGNEGVFIMGKTIEFHMGGNMELKAENSIILNGSVMVSTTRLPSSSSGDQLGSGDWVRYKLCMCADGTLFKVQVTSQNMGCQISDNPCGNTH [R109G] | -0.81
MAAAAAAAAEQQSSNGPVKKSMREKAVERRSVNKEHNSNFKAGYIPIDEDRLHKTGLRGRKGNLAICVIILLFILAVINLIITLVIWAVIRIGPNGCDSMEFHESGLLHFKQVSDMGVIHPLYKSTVGGRRNENLVITGNNQPIVFQQGTTKLSVENNKTSITSDIGMQFFDPRTQNILFSTDYETHEFHLPSGVKSLNVQKASTERITSNATSDLNIKVDGRAIVRGNEGVFIMGKTIEFHMGGNMELKAENSIILNGSVMVSTTRLPSSSSGDQLGSGDWVRYKLCMCADGTLFKVQVTSQNMGCQISDNPCGNTH [R109H] | -0.61
MAAAAAAAAEQQSSNGPVKKSMREKAVERRSVNKEHNSNFKAGYIPIDEDRLHKTGLRGRKGNLAICVIILLFILAVINLIITLVIWAVIRIGPNGCDSMEFHESGLLDFKQVSDMGVIHPLYKSTVGGRRNENLVITGNNQPIVFQQGTTKLSVENNKTSITSDIGMQFFDPRTQNILFSTDYETHEFHLPSGVKSLNVQKASTERITSNATSDLNIKVDGRAIVRGNEGVFIMGKTIEFHMGGNMELKAENSIILNGSVMVSTTRLPSSSSGDQLGSGDWVRYKLCMCADGTLFKVQVTSQNMGCQISDNPCGNTH [R109D] | -0.93
